From paper PMC13193388 (2025)

Biological target: purified recombinant HIS epitope-tagged NOTCH3 extracellular domain (human, UniProt Q9UM47 40-1643, glycosylated)
Experiment: SPR

Sequence of purified recombinant HIS epitope-tagged NOTCH3 extracellular domain (Q9UM47 40-1643): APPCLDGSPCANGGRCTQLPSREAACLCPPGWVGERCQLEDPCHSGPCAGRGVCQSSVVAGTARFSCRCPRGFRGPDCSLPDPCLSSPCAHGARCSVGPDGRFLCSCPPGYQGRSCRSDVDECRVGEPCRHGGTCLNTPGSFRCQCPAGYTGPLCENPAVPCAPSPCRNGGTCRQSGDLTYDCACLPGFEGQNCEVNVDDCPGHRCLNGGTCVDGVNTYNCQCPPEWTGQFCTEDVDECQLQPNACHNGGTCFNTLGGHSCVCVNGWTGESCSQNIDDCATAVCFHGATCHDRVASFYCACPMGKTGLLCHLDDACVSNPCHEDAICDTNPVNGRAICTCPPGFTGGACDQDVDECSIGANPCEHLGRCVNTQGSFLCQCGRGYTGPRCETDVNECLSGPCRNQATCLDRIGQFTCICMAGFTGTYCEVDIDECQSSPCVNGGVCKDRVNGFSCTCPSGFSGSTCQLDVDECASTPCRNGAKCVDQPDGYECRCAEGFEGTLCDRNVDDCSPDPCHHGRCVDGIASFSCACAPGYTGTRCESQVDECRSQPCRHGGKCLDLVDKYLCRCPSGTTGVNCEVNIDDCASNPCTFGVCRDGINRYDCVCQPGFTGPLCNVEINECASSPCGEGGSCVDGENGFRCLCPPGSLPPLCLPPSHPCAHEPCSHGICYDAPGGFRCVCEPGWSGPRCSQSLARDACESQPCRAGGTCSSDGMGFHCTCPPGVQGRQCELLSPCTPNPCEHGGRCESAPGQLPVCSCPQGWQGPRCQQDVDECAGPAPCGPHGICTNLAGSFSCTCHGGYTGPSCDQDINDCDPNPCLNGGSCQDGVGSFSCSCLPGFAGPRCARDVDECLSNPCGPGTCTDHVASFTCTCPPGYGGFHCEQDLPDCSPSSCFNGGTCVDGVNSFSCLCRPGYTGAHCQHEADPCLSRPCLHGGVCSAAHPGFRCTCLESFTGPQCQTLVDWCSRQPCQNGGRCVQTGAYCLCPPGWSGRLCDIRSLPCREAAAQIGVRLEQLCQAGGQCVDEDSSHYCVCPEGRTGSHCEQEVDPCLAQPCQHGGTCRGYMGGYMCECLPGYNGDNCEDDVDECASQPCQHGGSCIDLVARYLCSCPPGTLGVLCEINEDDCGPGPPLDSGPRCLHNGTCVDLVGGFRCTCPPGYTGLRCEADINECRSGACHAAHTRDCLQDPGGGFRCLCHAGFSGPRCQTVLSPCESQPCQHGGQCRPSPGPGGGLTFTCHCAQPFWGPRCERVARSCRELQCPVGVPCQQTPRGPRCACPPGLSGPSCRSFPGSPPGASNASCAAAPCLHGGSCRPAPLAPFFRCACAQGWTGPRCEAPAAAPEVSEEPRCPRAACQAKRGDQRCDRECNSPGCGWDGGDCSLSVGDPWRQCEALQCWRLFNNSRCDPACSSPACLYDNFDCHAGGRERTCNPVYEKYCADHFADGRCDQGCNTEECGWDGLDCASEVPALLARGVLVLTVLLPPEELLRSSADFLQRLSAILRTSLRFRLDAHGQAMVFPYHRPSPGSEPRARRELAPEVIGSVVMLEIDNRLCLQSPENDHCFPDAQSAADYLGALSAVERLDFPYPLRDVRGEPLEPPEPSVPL

Kd [nM]	Binder
1180	EKYGGGHFADGR [control peptide (EKYGGGHFADGR)]
13.1	EKYCADHFADGR [N34 peptide]
